What all share (assay): SPR; Biacore T100; FADD DED amine-coupled to CM5 chip; caspase-8 DEDs 250 to 5,000 nM as analyte in HBS-EP+ (10 mM HEPES pH 7.4, 150 mM NaCl, 3 mM EDTA, 0.05% P20), 25°C; apparent KD
Common to all, as to settings: both partners purified
(In general: Surface plasmon resonance follows binding to a sensor surface in real time, without labels.)

The target in experiment [1] is T1, caspase-8 DEDs (residues 1-188), His-tagged, wild type (human, UniProt Q14790 1-188).
T1 construct: human caspase-8, tandem death-effector domains DED1 and DED2, residues 1-188; Cloned in pET-28a; also called His-caspase-8 DEDs (1-188); wild-type caspase-8 DEDs; source: E. coli BL21(DE3), purified (Ni-NTA, gel filtration); also co-expressed with FADD DED in E. coli and co-purified
T1 sequence (Q14790 1-188): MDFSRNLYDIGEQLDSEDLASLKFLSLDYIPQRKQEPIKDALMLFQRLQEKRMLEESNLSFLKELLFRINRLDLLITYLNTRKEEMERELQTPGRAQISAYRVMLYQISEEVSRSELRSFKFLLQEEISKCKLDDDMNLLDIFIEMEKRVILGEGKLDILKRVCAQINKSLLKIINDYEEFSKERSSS

For experiment [2], the target named is T2, caspase-8 DEDs (residues 1-188) I128A, His-tagged (human, UniProt Q14790 1-188, I128A).
T2 construct: human caspase-8, tandem death-effector domains, residues 1-188; also called Caspase-8 DEDs (I128A); source: E. coli BL21(DE3), purified (Ni-NTA, gel filtration)
T2 sequence (Q14790 1-188 I128A): as the sequence (Q14790 1-188) above, with I128A counted along it

Experiment [3] addresses T3, caspase-8 DEDs (residues 1-188) R5E/I128A, His-tagged (human, UniProt Q14790 1-188, R5E | I128A).
T3 construct: human caspase-8, tandem death-effector domains, residues 1-188; also called Caspase-8 DEDs (R5E/I128A); source: E. coli BL21(DE3), purified (Ni-NTA, gel filtration)

T3 sequence (Q14790 1-188 R5E/I128A): as the sequence (Q14790 1-188) above, with R5E, I128A counted along it

B1: FADD DED (residues 1-83), His-tagged (domain or fragment, human, UniProt Q13158 1-83, looked up)
chain: MDPFLVLLHSVSSSLSSSELTELKFLCLGRVGKRKLERVQSGLDLFSMLLEQNDLEPGHTELLRELLASLRRHDLLRRVDDFE
notes: human FADD (MORT1), death-effector domain construct, residues 1-83; Cloned in pET-28a; also called wild-type FADD DED; Fas-associated death domain; source: E. coli BL21(DE3), purified (Ni-NTA, gel filtration); also co-expressed with caspase-8 DEDs in E. coli and co-purified
Consider B1, for which the Kd in experiment [1] is 38 nM; in experiment [2], 61 nM; in experiment [3], 236 nM.
